# Assay results published in IntAct's records for PubMed 29892012.
# B1: Coiled-coil alpha-helical rod protein 1 (Homo sapiens), Q8TD31 (parent)
# chain: MFPPSGSTGLIPPSHFQARPLSTLPRMAPTWLSDIPLVQPPGHQDVSERRLDTQRPQVTMWERDVSSDRQEPGRRGRSWGLEGSQALSQQAEVIVRQLQELRRLEEEVRLLRETSLQQKMRLEAQAMELEALARAEKAGRAEAEGLRAALAGAEVVRKNLEEGSQRELEEVQRLHQEQLSSLTQAHEEALSSLTSKAEGLEKSLSSLETRRAGEAKELAEAQREAELLRKQLSKTQEDLEAQVTLVENLRKYVGEQVPSEVHSQTWELERQKLLETMQHLQEDRDSLHATAELLQVRVQSLTHILALQEEELTRKVQPSDSLEPEFTRKCQSLLNRWREKVFALMVQLKAQELEHSDSVKQLKGQVASLQEKVTSQSQEQAILQRSLQDKAAEVEVERMGAKGLQLELSRAQEARRRWQQQTASAEEQLRLVVNAVSSSQIWLETTMAKVEGAAAQLPSLNNRLSYAVRKVHTIRGLIARKLALAQLRQESCPLPPPVTDVSLELQQLREERNRLDAELQLSARLIQQEVGRAREQGEAERQQLSKVAQQLEQELQQTQESLASLGLQLEVARQGQQESTEEAASLRQELTQQQELYGQALQEKVAEVETRLREQLSDTERRLNEARREHAKAVVSLRQIQRRAAQEKERSQELRRLQEEARKEEGQRLARRLQELERDKNLMLATLQQEGLLSRYKQQRLLTVLPSLLDKKKSVVSSPRPPECSASAPVAAAVPTRESIKGSLSVLLDDLQDLSEAISKEEAVCQGDNLDRCSSSNPQMSS
# partner: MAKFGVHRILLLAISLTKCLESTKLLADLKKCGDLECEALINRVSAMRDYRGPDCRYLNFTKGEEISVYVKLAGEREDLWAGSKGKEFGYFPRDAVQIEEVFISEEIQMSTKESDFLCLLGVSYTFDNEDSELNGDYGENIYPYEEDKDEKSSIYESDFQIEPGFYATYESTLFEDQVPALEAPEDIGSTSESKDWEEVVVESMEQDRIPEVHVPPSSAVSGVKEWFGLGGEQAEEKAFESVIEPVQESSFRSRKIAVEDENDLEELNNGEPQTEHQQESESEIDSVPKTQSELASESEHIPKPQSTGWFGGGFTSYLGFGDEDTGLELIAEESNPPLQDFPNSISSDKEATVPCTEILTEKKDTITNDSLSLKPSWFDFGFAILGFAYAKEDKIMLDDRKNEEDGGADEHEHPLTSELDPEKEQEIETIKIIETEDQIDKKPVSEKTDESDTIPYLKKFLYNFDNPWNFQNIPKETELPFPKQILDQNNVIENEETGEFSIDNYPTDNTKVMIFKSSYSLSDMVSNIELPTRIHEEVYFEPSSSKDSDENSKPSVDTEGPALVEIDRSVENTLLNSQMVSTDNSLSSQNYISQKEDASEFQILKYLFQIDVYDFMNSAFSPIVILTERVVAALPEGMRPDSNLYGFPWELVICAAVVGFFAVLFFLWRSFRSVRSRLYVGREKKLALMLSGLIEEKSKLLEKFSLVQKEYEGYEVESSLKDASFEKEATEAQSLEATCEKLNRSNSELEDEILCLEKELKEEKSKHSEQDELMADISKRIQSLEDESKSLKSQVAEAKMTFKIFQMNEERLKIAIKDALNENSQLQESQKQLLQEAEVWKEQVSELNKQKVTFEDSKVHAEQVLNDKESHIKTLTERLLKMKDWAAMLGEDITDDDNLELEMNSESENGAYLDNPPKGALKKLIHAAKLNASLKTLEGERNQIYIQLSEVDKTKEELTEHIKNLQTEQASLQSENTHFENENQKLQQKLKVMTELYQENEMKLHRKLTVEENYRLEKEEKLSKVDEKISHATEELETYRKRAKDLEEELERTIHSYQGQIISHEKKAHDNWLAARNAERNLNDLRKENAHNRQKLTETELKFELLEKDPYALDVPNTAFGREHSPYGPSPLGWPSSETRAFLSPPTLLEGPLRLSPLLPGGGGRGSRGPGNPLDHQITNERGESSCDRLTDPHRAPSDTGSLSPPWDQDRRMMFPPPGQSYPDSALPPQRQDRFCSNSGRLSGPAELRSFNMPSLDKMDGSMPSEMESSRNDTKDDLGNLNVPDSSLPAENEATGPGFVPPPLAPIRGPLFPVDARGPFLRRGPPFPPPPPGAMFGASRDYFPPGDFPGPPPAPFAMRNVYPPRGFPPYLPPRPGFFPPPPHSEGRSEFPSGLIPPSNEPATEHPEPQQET
# B2: Atos homolog protein B (Homo sapiens), Q7L5A3 (parent)
# chain: MRHVQAEPSPSSEPEAGPSQPPVRQGALQGGLLMGYSPAGGATSPGVYQVSIFSPPAGTSEPHRALKRQAPSTEGPRELKRGPGLGAREGLPPEEPSTVGLLGPEGPGLGLGVASQHFSHRGLCVVEQRSSVTSSWTSGAWSPPCPPSNASCNTLHTRDWASPDPGGQGSLGESPGPAPPGQLHTLDTDLHSLAQIGGKSPVAGVGNGGSLWPRESPGTANGHSPEHTPPGPGPPGPCPTKRRLLPAGEAPDVSSEEEGPAPRRRRGSLGHPTAANSSDAKATPFWSHLLPGPKEPVLDPTDCGPMGRRLKGARRLKLSPLRSLRKGPGLLSPPSASPVPTPAVSRTLLGNFEESLLRGRFAPSGHIEGFTAEIGASGSYCPQHVTLPVTVTFFDVSEQNAPAPFLGIVDLNPLGRKGYSVPKVGTVQVTLFNPNQTVVKMFLVTFDFSDMPAAHMTFLRHRLFLVPVGEEGNANPTHRLLCYLLHLRFRSSRSGRLSLHGDIRLLFSRRSLELDTGLPYELQAVTEAPHNPRYSPLP
# partner: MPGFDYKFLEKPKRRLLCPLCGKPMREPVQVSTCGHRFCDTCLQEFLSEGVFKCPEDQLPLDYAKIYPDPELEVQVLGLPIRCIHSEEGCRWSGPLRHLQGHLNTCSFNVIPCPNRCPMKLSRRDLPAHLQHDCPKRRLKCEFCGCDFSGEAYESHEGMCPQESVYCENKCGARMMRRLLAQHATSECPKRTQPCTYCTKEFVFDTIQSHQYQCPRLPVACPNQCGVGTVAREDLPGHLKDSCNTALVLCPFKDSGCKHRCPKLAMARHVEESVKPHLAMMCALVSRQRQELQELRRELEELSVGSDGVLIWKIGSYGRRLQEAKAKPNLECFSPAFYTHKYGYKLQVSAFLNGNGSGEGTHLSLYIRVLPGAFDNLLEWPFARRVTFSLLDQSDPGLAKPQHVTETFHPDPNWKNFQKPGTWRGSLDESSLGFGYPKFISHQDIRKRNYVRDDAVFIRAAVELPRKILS
# B3: E3 ubiquitin-protein ligase LNX (Homo sapiens), Q8TBB1 (parent)
# chain: MNQPESANDPEPLCAVCGQAHSLEENHFYSYPEEVDDDLICHICLQALLDPLDTPCGHTYCTLCLTNFLVEKDFCPMDRKPLVLQHCKKSSILVNKLLNKLLVTCPFREHCTQVLQRCDLEHHFQTSCKGASHYGLTKDRKRRSQDGCPDGCASLTATAPSPEVSAAATISLMTDEPGLDNPAYVSSAEDGQPAISPVDSGRSNRTRARPFERSTIRSRSFKKINRALSVLRRTKSGSAVANHADQGRENSENTTAPEVFPRLYHLIPDGEITSIKINRVDPSESLSIRLVGGSETPLVHIIIQHIYRDGVIARDGRLLPGDIILKVNGMDISNVPHNYAVRLLRQPCQVLWLTVMREQKFRSRNNGQAPDAYRPRDDSFHVILNKSSPEEQLGIKLVRKVDEPGVFIFNVLDGGVAYRHGQLEENDRVLAINGHDLRYGSPESAAHLIQASERRVHLVVSRQVRQRSPDIFQEAGWNSNGSWSPGPGERSNTPKPLHPTITCHEKVVNIQKDPGESLGMTVAGGASHREWDLPIYVISVEPGGVISRDGRIKTGDILLNVDGVELTEVSRSEAVALLKRTSSSIVLKALEVKEYEPQEDCSSPAALDSNHNMAPPSDWSPSWVMWLELPRCLYNCKDIVLRRNTAGSLGFCIVGGYEEYNGNKPFFIKSIVEGTPAYNDGRIRCGDILLAVNGRSTSGMIHACLARLLKELKGRITLTIVSWPGTFL
# partner: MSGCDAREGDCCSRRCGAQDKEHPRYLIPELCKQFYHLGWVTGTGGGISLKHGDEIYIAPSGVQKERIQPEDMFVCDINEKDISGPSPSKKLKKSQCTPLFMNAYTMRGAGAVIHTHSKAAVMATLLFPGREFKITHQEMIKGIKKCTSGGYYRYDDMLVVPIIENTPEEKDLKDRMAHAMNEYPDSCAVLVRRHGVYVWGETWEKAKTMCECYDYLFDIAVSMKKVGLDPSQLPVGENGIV
# B4: E3 ubiquitin-protein ligase LNX (Homo sapiens), Q8TBB1 (parent)
# chain: B3 chain
# partner: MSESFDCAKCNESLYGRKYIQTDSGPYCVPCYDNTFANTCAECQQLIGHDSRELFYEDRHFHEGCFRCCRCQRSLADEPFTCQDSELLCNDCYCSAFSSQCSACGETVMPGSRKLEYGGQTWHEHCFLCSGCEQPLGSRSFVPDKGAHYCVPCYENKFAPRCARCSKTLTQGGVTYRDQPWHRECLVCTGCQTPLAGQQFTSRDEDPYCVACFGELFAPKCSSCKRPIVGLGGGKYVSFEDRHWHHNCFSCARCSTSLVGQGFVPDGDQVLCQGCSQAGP
# B5: Myotubularin-related protein 9 (Homo sapiens), Q96QG7 (parent)
# chain: MEFAELIKTPRVDNVVLHRPFYPAVEGTLCLTGHHLILSSRQDNTEELWLLHSNIDAIDKRFVGSLGTIIIKCKDFRIIQLDIPGMEECLNIASSIEALSTLDSITLMYPFFYRPMFEVIEDGWHSFLPEQEFELYSSATSEWRLSYVNKEFAVCPSYPPIVTVPKSIDDEALRKVATFRHGGRFPVLSYYHKKNGMVIMRSGQPLTGTNGRRCKEDEKLINATLRAGKRGYIIDTRSLNVAQQTRAKGGGFEQEAHYPQWRRIHKSIERYHILQESLIKLVEACNDQTHNMDRWLSKLEASNWLTHIKEILTTACLAAQCIDREGASILIHGTEGTDSTLQVTSLAQIILEPRSRTIRGFEALIEREWLQAGHPFQQRCAQSAYCNTKQKWEAPVFLLFLDCVWQILRQFPCSFEFNENFLIMLFEHAYASQFGTFLGNNESERCKLKLQQKTMSLWSWVNQPSELSKFTNPLFEANNLVIWPSVAPQSLPLWEGIFLRWNRSSKYLDEAYEEMVNIIEYNKELQAKVNILRRQLAELETEDGMQESP
# partner: B3 chain
# Variants of: B1
# Conditions: with mia2_human MIA2, Q96PC5
row,Variant,effect of a mutation on the interaction
1,W337R,disrupting interaction strength

# Variants of: B2
# Conditions: with traf4_human TRAF4, Q9BUZ4
row,Variant,effect of a mutation on the interaction
1,C381Y,disrupting interaction strength

# Variants of: B3
# Conditions: with mtnb_human APIP
row,Variant,effect of a mutation on the interaction
1,E295K,disrupting interaction strength

# Variants of: B4
# Conditions: with fhl3_human FHL3, Q13643
row,Variant,effect of a mutation on the interaction
1,E295K,disrupting interaction strength

# Variants of: B5
# Conditions: with lnx1_human LNX1, Q8TBB1
row,Variant,effect of a mutation on the interaction
1,R359S,with no effect
